Values joined by “and” are separate entries in the source; they are usually repeats but may differ in a detail not shown here. Identical values can stand only once.

The target of the assay is PSD95, endogenous, from mouse brain lysate (mouse (endogenous in mouse brain)) (UniProt Q62108). Kind of assay: co-IP.
Sequence of PSD95, endogenous, from mouse brain lysate (mouse (endogenous in mouse brain)) (Q62108 whole entry): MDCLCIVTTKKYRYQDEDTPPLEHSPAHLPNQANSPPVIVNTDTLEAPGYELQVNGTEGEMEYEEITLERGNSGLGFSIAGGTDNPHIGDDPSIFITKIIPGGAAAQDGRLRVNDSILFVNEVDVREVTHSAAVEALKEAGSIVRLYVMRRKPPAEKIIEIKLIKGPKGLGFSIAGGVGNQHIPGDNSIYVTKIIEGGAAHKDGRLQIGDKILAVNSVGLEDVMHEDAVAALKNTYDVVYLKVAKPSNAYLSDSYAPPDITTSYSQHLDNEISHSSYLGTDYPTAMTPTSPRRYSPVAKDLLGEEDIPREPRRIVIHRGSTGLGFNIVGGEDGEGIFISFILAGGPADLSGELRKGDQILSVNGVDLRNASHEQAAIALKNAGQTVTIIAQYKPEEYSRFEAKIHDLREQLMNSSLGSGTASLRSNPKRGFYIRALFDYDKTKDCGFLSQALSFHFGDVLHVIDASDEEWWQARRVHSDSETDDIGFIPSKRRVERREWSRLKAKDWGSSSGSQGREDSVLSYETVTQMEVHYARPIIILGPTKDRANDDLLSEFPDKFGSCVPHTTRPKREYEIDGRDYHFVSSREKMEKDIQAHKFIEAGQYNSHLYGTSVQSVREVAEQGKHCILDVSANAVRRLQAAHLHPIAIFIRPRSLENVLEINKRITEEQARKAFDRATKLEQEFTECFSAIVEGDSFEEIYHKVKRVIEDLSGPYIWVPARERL

Sequence of Phosphorylated Sept7 (pT426), endogenous, from mouse brain lysate (O55131 2-436): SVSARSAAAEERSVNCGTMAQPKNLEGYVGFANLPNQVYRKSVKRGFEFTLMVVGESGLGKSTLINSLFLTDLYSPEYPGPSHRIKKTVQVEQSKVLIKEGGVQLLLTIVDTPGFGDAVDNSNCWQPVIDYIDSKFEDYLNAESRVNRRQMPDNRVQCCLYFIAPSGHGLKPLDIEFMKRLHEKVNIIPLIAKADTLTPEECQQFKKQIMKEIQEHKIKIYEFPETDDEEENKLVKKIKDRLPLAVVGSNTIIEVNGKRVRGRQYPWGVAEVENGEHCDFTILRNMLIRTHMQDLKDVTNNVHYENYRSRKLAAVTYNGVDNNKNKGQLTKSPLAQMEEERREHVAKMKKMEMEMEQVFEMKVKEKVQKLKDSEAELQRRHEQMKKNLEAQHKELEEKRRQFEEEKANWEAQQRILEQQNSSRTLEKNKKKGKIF

Regarding “Phosphorylated Sept7 (pT426), endogenous, from mouse brain lysate (from UniProt O55131 1-436) (natural protein)”, the percent of endogenous Sept7 pulled down with PSD95 was 10% and 15%.

The values above are taken from PMC5267388.
